Measured values published in patent US20030021792A1.

Experiments:
[1] = target: rat dipeptidyl peptidase IV (rat) (UniProt P14740); experiment: 125I-labelled antibody injected in rat, scintigraphy of tissues
[2] = target: rat dipeptidyl peptidase IV (rat) (UniProt P14740); experiment: Europium-labelled antibody injected in rat, time-resolved fluorescence of lung homogenate
[3] = target: rat MadCam-1 (rat) (UniProt O70540); experiment: Europium-labelled antibody injected in rat, time-resolved fluorescence of pancreas homogenate
[4] = target: rat MadCam-1 (rat) (UniProt O70540); experiment: Europium-labelled antibody injected in rat, time-resolved fluorescence of small intestine homogenate

Sequence of UniProt P14740 (P14740 whole entry R38A/Q470G): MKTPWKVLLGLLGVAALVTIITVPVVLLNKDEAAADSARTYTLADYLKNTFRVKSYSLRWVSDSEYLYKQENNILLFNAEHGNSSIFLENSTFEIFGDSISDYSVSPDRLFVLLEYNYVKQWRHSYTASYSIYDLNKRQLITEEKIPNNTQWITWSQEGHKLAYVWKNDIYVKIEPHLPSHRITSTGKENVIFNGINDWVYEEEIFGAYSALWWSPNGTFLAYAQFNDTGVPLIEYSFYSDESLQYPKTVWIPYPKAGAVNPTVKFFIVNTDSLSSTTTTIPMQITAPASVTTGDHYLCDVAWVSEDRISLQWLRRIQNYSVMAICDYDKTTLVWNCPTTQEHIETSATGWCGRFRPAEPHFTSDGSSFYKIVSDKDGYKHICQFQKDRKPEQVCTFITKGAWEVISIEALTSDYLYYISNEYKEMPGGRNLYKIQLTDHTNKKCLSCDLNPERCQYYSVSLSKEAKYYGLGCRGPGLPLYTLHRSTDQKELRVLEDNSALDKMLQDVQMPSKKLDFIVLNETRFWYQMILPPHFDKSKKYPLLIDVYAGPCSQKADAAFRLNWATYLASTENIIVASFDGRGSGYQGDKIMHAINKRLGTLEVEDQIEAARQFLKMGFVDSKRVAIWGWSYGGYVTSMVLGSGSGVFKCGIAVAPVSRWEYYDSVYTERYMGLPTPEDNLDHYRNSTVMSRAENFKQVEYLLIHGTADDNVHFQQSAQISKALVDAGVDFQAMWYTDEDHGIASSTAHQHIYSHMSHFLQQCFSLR
Sequence of UniProt O70540 (O70540 20-394 limits assumed): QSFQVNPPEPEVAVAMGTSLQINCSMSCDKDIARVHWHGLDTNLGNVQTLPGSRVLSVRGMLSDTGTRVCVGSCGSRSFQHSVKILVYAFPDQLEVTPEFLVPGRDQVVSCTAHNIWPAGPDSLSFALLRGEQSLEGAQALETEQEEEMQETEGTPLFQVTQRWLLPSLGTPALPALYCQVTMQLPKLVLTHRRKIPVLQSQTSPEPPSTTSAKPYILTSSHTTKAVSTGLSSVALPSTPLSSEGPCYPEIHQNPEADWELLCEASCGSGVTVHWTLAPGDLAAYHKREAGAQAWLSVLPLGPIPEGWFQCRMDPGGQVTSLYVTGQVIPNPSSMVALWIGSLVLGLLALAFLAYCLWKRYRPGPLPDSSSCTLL

| Substance | antibody per gram of lung tissue (5 µg dose, 5 minutes) (µg per gram of tissue) [1] | antibody per gram of lung tissue (5 µg dose, 8 hours) (µg per gram of lung tissue) [1] | percent of injected dose localized in the lung (1 µg dose, 2 hours) (% of injected dose) [1] | percent of injected dose localized in the lung (1 µg dose, 8 hours) (% of injected dose) [1] | percent of injected dose localized in the lung (5 µg dose, 5 minutes) (% of the initial antibody dose) [1] | percent of injected dose localized in the lungs (5 µg dose, 30 minutes) (% of injected dose) [2] | percent of injected dose localized in the lungs (5 µg dose, 6 hours) (% of injected dose) [2] | percent of injected dose localized to the pancreas (5 µg dose, 6 hours) (% of injected dose) [3] | percent of injected dose in the small intestine (5 µg dose, 6 hours) (% of injected dose) [4] |
| --- | --- | --- | --- | --- | --- | --- | --- | --- | --- |
| OX-61 (Pharmingen), mouse monoclonal antibody specific for DPP-4 | > 0.4 | 0.7 | 22 | 30 | 20 | 15 | 7 |  |  |
| OST-2 (Pharmingen), mouse monoclonal antibody that recognizes rat MadCam-1 |  |  |  |  |  |  |  | 3 | > 5 |
